Test results reported in patent publication US20040229826A1, “Dose-dense & sequential adjuvant cancer chemotherapy” (priority 2002, published 2004).

Procedure: Designed for outpatients, all chemotherapy (FIG. 1) was given intravenously, starting within 84 days from primary surgery. […]
Disease-free survival (DFS), which was the primary study endpoint, was measured from study entry until local recurrence, distant relapse or death without relapse, whichever occurred first. […] The secondary endpoint of overall survival (OS) was measured from study entry until death from any cause; surviving patients were censored at the date of last contact. […]

B1: filgrastim (protein, chains of the INN, looked up)
chain: MTPLGPASSLPQSFLLKCLEQVRKIQGDGAALQEKLCATYKLCHPEELVLLGHSLGIPWAPLSSCPSQALQLAGCLSQLHSGLFLYQGLLQALEGISPELGPTLDTLQLDVADFATTIWQQMEELGMAPALQPTQGAMPAFASAFQRRAGGVLVASHLQSFLEVSYRVLRHLAQP
incidence of leukemia (influence of filgrastim): not influenced
granulocyte toxicity (use of filgrastim in the dose dense regimens): statistically significant decrease
